Measurements taken from PMC5397175.

Tests used:
Sam68 STAR domain = Sam68 STAR domain (UniProt Q07666); test: fluorescence polarization; conditions: FP buffer, salt, pH and temperature not given in the material; SD from three independent experiments
[1] = target: T1, SLM2 (T-STAR) STAR domain (UniProt O75525); test: fluorescence polarization; conditions: FP buffer, salt, pH and temperature not given in the material; SD from three independent experiments
T1 sequence: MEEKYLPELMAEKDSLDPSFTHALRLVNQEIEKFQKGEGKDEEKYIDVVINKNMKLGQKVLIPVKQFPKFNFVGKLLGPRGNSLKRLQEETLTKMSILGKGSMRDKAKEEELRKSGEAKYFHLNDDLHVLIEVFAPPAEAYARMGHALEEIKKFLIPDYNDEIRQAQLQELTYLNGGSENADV

Sam68 STAR domain, sequence (Q07666 97-283): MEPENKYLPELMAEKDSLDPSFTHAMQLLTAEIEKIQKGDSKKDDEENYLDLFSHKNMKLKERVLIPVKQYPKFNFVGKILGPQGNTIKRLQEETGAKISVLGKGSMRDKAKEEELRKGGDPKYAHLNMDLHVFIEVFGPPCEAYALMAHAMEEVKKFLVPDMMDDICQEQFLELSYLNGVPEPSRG

Row | Sequence | Kd (Sam68 STAR domain) [µM] | Kd [1] [µM]
1 | CCCACAGUUUAAAAUUUGAUAAAAUUU [Stxbp5l 1] | 15.5 | 24
2 | CCCUUACAUUUAAAAGAUGAUUUAAAAA [Stxbp5l 2] | 13.8 | 18.2
